Data published in patent US20190064177A1, “INCORPORATING COMPETITIVE BINDING INFORMATION INTO MOLECULAR ARRAY ANALYSIS TO GENERATE FUNCTION NETWORKS OF INTERACTIONS” (ARIZONA BOARD OF REGENTS ON BEHALF OF ARIZONA STATE …, priority 2017, published 2019).

Assays:
Diaphorase [1] = test: peptide array, 1 uM diaphorase, binding without FAD / with FAD
Diaphorase [2] = test: peptide array, 1 uM labeled diaphorase, no FAD
Diaphorase [3] = test: peptide array, 1 uM labeled diaphorase, with FAD
Diaphorase [4] = test: peptide array, 10 uM labeled diaphorase, no FAD
Diaphorase [5] = test: peptide array, 10 uM labeled diaphorase, with FAD
Diaphorase [6] = test: peptide array, 10 uM diaphorase, binding without FAD / with FAD

Binder | noFAD/FAD (Diaphorase [1]) | fluorescence (Diaphorase [2]) | fluorescence (Diaphorase [3]) | fluorescence (Diaphorase [4]) | fluorescence (Diaphorase [5]) | noFAD/FAD (Diaphorase [6])
KEAPGPRFGGSG | 0.129 | 1070 | 8280 | 5610 | 5470 | 1.03
YSVDYWYQVDGSG | 0.173 | 1800 | 10400 | 19800 | 19200 | 1.03
NVSDLSQFYLSGSG | 0.624 | 2140 | 3440 | 6740 | 27800 | 0.242
ELFGALFKGGSG | 0.612 | 2080 | 3400 | 12900 | 25300 | 0.511
AFYGLELGGSG | 0.541 | 2260 | 4180 | 16500 | 36700 | 0.45
RPLQVQRGGS | 0.375 | 5410 | 14400 | 53200 | 41100 | 1.3
VVQALFDGSG | 0.637 | 1470 | 2300 | 9480 | 21200 | 0.448
RWKYQKFNGGSG | 2.63 | 10200 | 3860 | 61300 | 46200 | 1.33
WLDLGVFPYQHLGSG | 0.641 | 2200 | 3430 | 25700 | 33600 | 0.765
SVLEGYQAVFGGSG | 0.503 | 1340 | 2660 | 6070 | 21500 | 0.282
VKDGANKHYWRVSGSG | 0.18 | 2220 | 12300 | 20400 | 17800 | 1.14
VFGVLSQVARDGSG | 0.64 | 4250 | 6640 | 26200 | 51500 | 0.509
EDEGLSKFEGGSG | 0.135 | 561 | 4170 | 1220 | 1380 | 0.885
VLSLNQVYSEGSG | 0.619 | 1670 | 2710 | 9850 | 21800 | 0.452
EAVQKLLFSGSG | 0.602 | 1460 | 2420 | 5390 | 17700 | 0.304
KNRPYNKDLEDGSG | 0.142 | 733 | 5150 | 2520 | 2590 | 0.974
DLDKAFGGSG | 0.296 | 607 | 2050 | 1850 | 2140 | 0.865
EGYANKLLALFSGSG | 0.599 | 1030 | 1730 | 6650 | 10400 | 0.639
YRFQSGLPAKDGSG | 2.71 | 4040 | 1490 | 50300 | 20200 | 2.49
RFKYPLDGGSG | 2.62 | 5760 | 2200 | 55900 | 30400 | 1.84

Now from value to binder:

noFAD/FAD (Diaphorase [1]) | fluorescence (Diaphorase [2]) | fluorescence (Diaphorase [3]) | fluorescence (Diaphorase [4]) | fluorescence (Diaphorase [5]) | noFAD/FAD (Diaphorase [6]) | Binder
0.63 | 1560 | 2470 | 8700 | 23500 | 0.369 | LKQLFLEGGSG
0.627 | 1910 | 3050 | 15700 | 34200 | 0.46 | FGKLYQLYNDGSG
0.537 | 770 | 1440 | 2950 | 3700 | 0.797 | LAKQNRVEDGSG
0.583 | 1230 | 2100 | 8530 | 16900 | 0.506 | YSALFGLQEDGSG
0.559 | 2320 | 4140 | 26300 | 40300 | 0.652 | LLGFLGGSG
0.652 | 2010 | 3090 | 12600 | 22700 | 0.555 | AQVAVDGFYVDGSG
0.637 | 1570 | 2470 | 12700 | 20200 | 0.631 | FQFGKVVSDGSG
0.609 | 709 | 1160 | 3000 | 7140 | 0.419 | LDRLGEYQFSGSG
0.339 | 759 | 2240 | 2900 | 3370 | 0.86 | VERASYNLDGSG
2.6 | 4010 | 1550 | 41300 | 18600 | 2.23 | YNRNAKSSGGSG
2.94 | 5780 | 1960 | 64300 | 30600 | 2.1 | RLQYLFKSDGSG
0.511 | 3230 | 6310 | 19500 | 53400 | 0.366 | QLLQLLFGGSG
2.62 | 5650 | 2160 | 58900 | 31500 | 1.87 | WRGFKFADGGSG
0.556 | 2610 | 4690 | 17300 | 36300 | 0.476 | YVWGLELSGGSG
2.75 | 6760 | 2460 | 57200 | 27300 | 2.1 | RQYQKHSYAKFSGSG
0.504 | 1950 | 3880 | 17000 | 12200 | 1.39 | RSHPKHNVGSG
